PMC11191771

Columns and labels:
[1] = molecular target: T1, PRC2.2 EZH2 R566Y K568Y Q575Y (3Y) (human, UniProt Q15910-2;Q15022;O75530;Q09028;Q6ZN18;Q92833 …, R566Y;K568Y;Q575Y); test: EMSA; higher affinity than WT; EMSA: 50 mM Tris-HCl pH 7.5 (25 C), 100 mM KCl, 2.5 mM MgCl2, 0.1 mM ZnCl2, 2 mM 2-mercaptoethanol?; FP: 50 mM Tris pH 7.5, 10 or 25 mM KCl, 2.5 mM MgCl2, 0.1 mM ZnCl2, 0.1 mg/mL BSA?, room temperature, 5 nM RNA or DNA; details: protein: recombinant; tags: as P1; copies: 1;1;1;1;1;1; label: 5' 32P (EMSA); single G-quadruplex
[2] = molecular target: PRC2.2 EZH2 del353-362 (human, UniProt Q15910-2;Q15022;O75530;Q09028;Q6ZN18;Q92833 …, internal_change); test: EMSA; no obvious reduction vs WT; EMSA: 50 mM Tris-HCl pH 7.5 (25 C), 100 mM KCl, 2.5 mM MgCl2, 0.1 mM ZnCl2, 2 mM 2-mercaptoethanol?; FP: 50 mM Tris pH 7.5, 10 or 25 mM KCl, 2.5 mM MgCl2, 0.1 mM ZnCl2, 0.1 mg/mL BSA?, room temperature, 5 nM RNA or DNA; details: protein: recombinant; tags: as P1; copies: 1;1;1;1;1;1; label: 5' 32P (EMSA); single G-quadruplex
[3] = molecular target: PRC2.2 EZH2 R566A K568A Q575A (human, UniProt Q15910-2;Q15022;O75530;Q09028;Q6ZN18;Q92833 …, R566A;K568A;Q575A); test: EMSA; binding not affected vs WT; EMSA: 50 mM Tris-HCl pH 7.5 (25 C), 100 mM KCl, 2.5 mM MgCl2, 0.1 mM ZnCl2, 2 mM 2-mercaptoethanol?; FP: 50 mM Tris pH 7.5, 10 or 25 mM KCl, 2.5 mM MgCl2, 0.1 mM ZnCl2, 0.1 mg/mL BSA?, room temperature, 5 nM RNA or DNA; details: protein: recombinant; tags: as P1; copies: 1;1;1;1;1;1; label: 5' 32P (EMSA); single G-quadruplex
[4] = molecular target: PRC2.2 six-subunit complex WT (EZH2, SUZ12, EED, RBAP48, AEBP2, JARID2 119-450) (human, UniProt Q15910-2;Q15022;O75530;Q09028;Q6ZN18;Q92833 …); test: EMSA; 100 mM KCl; EMSA: 50 mM Tris-HCl pH 7.5 (25 C), 100 mM KCl, 2.5 mM MgCl2, 0.1 mM ZnCl2, 2 mM 2-mercaptoethanol?; FP: 50 mM Tris pH 7.5, 10 or 25 mM KCl, 2.5 mM MgCl2, 0.1 mM ZnCl2, 0.1 mg/mL BSA?, room temperature, 5 nM RNA or DNA; details: protein: recombinant, tags: His-EZH2, Strep-GFP-AEBP2, Strep-GFP-JARID2, TEV protease treated, copies: 1;1;1;1;1;1, label: 5' 32P (EMSA)
[5] = molecular target: T1, PRC2.2 EZH2 R566Y K568Y Q575Y (3Y); test: FP; higher affinity than WT; Kd only in figure; EMSA: 50 mM Tris-HCl pH 7.5 (25 C), 100 mM KCl, 2.5 mM MgCl2, 0.1 mM ZnCl2, 2 mM 2-mercaptoethanol?; FP: 50 mM Tris pH 7.5, 10 or 25 mM KCl, 2.5 mM MgCl2, 0.1 mM ZnCl2, 0.1 mg/mL BSA?, room temperature, 5 nM RNA or DNA; details: protein: recombinant; tags: as P1; copies: 1;1;1;1;1;1; label: fluorescent label; single G-quadruplex

B1: 1G4 RNA, no biotin (structured_RNA)
RNA: CAAAAACAAAAACAAAAACAAAAACAAAAAGGGAAGGGAAGGGAAGGGAA
[1]
  binding result: binds
[2]
  binding result: binds
[3]
  binding result: binds
[4]; single G-quadruplex
  Kd: 120 nM

B2: 1G4 RNA (FP) (structured_RNA)
RNA: B1 RNA
[5]
  binding result: binds

B3: 2G4 RNA (structured_RNA)
RNA: CAAAAACAAAAACAAAAACAAAAACAAAAAGGGAAGGGAAGGGAAGGGAAACAACAACAACAACAGGGAAGGGAAGGGAAGGGAA
[4]; two G-quadruplexes
  Kd: 32 nM
